Numbered stars: 1 amine (or outer) side, 2 acyl side, 3 side chain; on linkers, the order of the positions; unused ones are H or OH. Square brackets hold non-standard residues; d marks the D form. Side chains are listed from the residue outwards. Ends that are not written are not given here. Peptide text beside a SMILES is read from it. * marks the point of attachment. C18 = C18 fatty acid (C16-C22 fatty acids conjugated via γGlu/8-amino-3,6-dioxaoctanoic acid spacers); C20 = C20 fatty acid moiety (of 2OEG-γGlu-C20, K**); C20 diacid = O=C(O)CCCCCCCCCCCCCCCCCCC(=O)*; γGlu = O=C(O)[C@H](CCC(=O)[*:2])N[*:1]; αMeR = C[C@](N)(CCCNC(=N)N)C(=O)O; AEEA = NCCOCCOCC(=O)O; Aib = CC(C)(N)C(=O)O
Tests used:
[1] = rat, in vivo, iv, 100 nmol/kg
Method: This study was conducted to evaluate the PK profile of SEQ ID NOs. 77, 102, and 103 and compare the PK profile by the different lipidated structure of peptides in rat plasma by IV administration. SEQ ID NOs. The peptides were delivered at 0.02% PS80 in PBS and dosing volume was 2.5 mL/kg.
The animals were not fasted prior to dosing. 0.2-0.4 mL of whole blood was taken from vein at each time point (0.167, 0.5, 1, 2, 4, 6, 8, 24, and 48 hr after administration) and transferred into the heparin coated tube.
The resulting plasma of 0.1-0.2 mL obtained by centrifugation of the blood samples was transferred into the tube and stored at −70° C. until analysis. The concentrations of peptides in plasma were determined by LC-MS/MS analysis.

[2] = In vivo efficacy in CDA-HFD (NASH) mice, 4 weeks; conditions: Example 16; for body weight compared to vehicle-treated control, in words: 20 nmol/kg s.c. Q2D, 4 weeks; for liver enzymes and liver steatosis compared to vehicle-treated control, in words: end of treatment
Method: This study was conducted to evaluate the efficacy of SEQ ID NOs. […] SEQ ID NOs. The peptides were delivered at 0.02% PS80 in PBS and dosing volume was 10 mL/kg. Control group was administered by vehicle without peptide.
Body weight changes were monitored Q2D; serum chemistry (end); hepatic TG (end); and histological analysis (end). […]

[3] = In vivo efficacy in mAMLN (obese and NASH) mice, 4 weeks; conditions: after 4 weeks
[4] = target: T1, human GLP-1 receptor (GLP-1R), expressed on CHO-K1 cells (human, UniProt P43220 24-463); assay: cell-based or functional assay
[5] = target: T2, human glucose-dependent insulinotropic polypeptide receptor (GIPR), expressed on CHO-K1 cells (human, UniProt P48546 22-466); assay: cell-based or functional assay
T2 sequence (looked up): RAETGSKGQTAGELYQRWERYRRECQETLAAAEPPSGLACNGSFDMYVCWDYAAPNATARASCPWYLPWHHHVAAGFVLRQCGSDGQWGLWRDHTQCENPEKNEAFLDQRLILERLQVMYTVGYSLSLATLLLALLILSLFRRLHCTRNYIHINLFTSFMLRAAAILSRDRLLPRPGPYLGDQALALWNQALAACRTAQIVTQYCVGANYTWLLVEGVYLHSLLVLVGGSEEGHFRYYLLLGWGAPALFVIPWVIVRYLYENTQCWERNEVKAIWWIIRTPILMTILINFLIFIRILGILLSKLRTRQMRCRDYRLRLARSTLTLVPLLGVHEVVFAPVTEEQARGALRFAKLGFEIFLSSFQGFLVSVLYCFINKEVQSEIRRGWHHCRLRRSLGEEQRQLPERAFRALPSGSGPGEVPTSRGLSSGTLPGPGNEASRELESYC

[6] = target: T1, human GLP-1 receptor (GLP-1R), …; assay: cell-based or functional assay; remark: listed apart in the source
[7] = target: human glucagon receptor (GCGR), expressed on CHO-K1 cells (human, UniProt P47871 26-477); assay: cell-based or functional assay
Sequence of human glucagon receptor (GCGR), expressed on CHO-K1 cells (P47871 26-477): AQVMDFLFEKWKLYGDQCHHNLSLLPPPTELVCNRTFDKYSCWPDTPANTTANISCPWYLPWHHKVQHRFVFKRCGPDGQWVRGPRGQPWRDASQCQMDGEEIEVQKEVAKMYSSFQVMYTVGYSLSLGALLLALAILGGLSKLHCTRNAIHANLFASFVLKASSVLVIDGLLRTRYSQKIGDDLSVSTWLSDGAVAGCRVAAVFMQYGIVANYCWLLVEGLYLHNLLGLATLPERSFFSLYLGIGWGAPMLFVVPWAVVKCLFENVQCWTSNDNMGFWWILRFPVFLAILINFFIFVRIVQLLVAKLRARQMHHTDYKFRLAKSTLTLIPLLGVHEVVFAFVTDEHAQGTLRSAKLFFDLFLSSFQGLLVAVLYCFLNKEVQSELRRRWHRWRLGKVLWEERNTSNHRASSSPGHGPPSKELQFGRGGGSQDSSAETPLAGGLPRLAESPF

[8] = target: T2, human glucose-dependent insulinotropic …; assay: cell-based or functional assay; remark: listed apart in the source

## CSCC[C@H](NC(=O)[C@H](Cc1ccc(O)cc1)NC(=O)[C@H](CC(=O)O)NC(=O)[C@H](CC(C)C)NC(=O)[C@H](CC(C)C)NC(=O)[C@H](CCCCNC(=O)COCCOCCNC(=O)COCCOCCNC(=O)CC[C@H](NC(=O)CCCCCCCCCCCCCCCCCCC(=O)O)C(=O)O)NC(=O)[C@H](CO)NC(=O)[C@H](Cc1ccc(O)cc1)NC(=O)[C@H](CC(=O)O)NC(=O)[C@H](CO)NC(=O)[C@@H](NC(=O)[C@H](Cc1ccccc1)NC(=O)[C@@H](NC(=O)CNC(=O)[C@H](CCC(N)=O)NC(=O)C(C)(C)NC(=O)[C@@H](N)Cc1ccc(O)cc1)[C@@H](C)O)[C@@H](C)O)C(=O)N[C@@H](CCSC)C(=O)N[C@@H](CCC(N)=O)C(=O)N[C@@H](CCCNC(=N)N)C(=O)N[C@@H](CC(=O)O)C(=O)N[C@@H](Cc1ccccc1)C(=O)N[C@H](C(=O)N[C@@H](CCC(N)=O)C(=O)N[C@@H](Cc1c[nH]c2ccccc12)C(=O)N[C@@H](CC(C)C)C(=O)N[C@@H](CC(C)C)C(=O)N[C@@H](CCC(=O)O)C(=O)NCC(=O)NCC(=O)N1CCC[C@H]1C(=O)N[C@@H](CO)C(=O)N[C@@H](CO)C(=O)NCC(=O)N[C@@H](C)C(=O)N1CCC[C@H]1C(=O)N1CCC[C@H]1C(=O)N1CCC[C@H]1C(=O)N[C@@H](CO)C(N)=O)C(C)C [compound 103] (H-Y[Aib]QGTFTSDYSK([AEEA-AEEA-γGlu-C20 diacid])LLDYMMQRDFVQWLLEGGPSSGAPPPS-NH2; N-terminus and C-terminus assumed)
[1]
  AUCinf/dose: 629.51 ± 76.87 kg·h/L
  half-life: 9.59 ± 1.32 h
[2]
  efficacy in the NASH model, in words: superior efficacy compared to SEQ ID NO. 77
  hepatic steatosis score compared to CDA-HFD control, in words: significantly reduced
  scores of hepatocytes inflammation and NAS score, in words: statistically reduced
  body weight compared to vehicle-treated control, in words: reduce body weight
  liver enzymes and liver steatosis compared to vehicle-treated control, in words: reduce liver enzymes and liver steatosis significantly

## 97 (Y[Aib]QGTFTSDYSK([AEEA-AEEA-γGlu-C18])YLDYMMQRDFVK(N‑Biotinoyl‑N'‑(6-maleimidohexanoyl)hydrazide)WLLEGGPSSGAPPPS-NH2) [compound 97]
[3]
  NAS score, in words: statistically decreased more than the level of tirzepatide
  hepatic steatosis (histological score), in words: significantly reduced
  liver weight, visceral fat weight, liver enzymes, and liver steatosis compared to vehicle-treated control, in words: significantly reduced

## CSCC[C@H](NC(=O)[C@H](Cc1ccc(O)cc1)NC(=O)[C@H](CC(=O)O)NC(=O)[C@H](CC(C)C)NC(=O)[C@H](CC(C)C)NC(=O)[C@H](CCCCNC(=O)COCCOCCNC(=O)CC[C@H](NC(=O)CCCCCCCCCCCCCCCCCCC(=O)O)C(=O)O)NC(=O)[C@H](CO)NC(=O)[C@H](Cc1ccc(O)cc1)NC(=O)[C@H](CC(=O)O)NC(=O)[C@H](CO)NC(=O)[C@@H](NC(=O)[C@H](Cc1ccccc1)NC(=O)[C@@H](NC(=O)CNC(=O)[C@H](CCC(N)=O)NC(=O)C(C)(C)NC(=O)[C@@H](N)Cc1ccc(O)cc1)[C@@H](C)O)[C@@H](C)O)C(=O)N[C@@H](CCSC)C(=O)N[C@@H](CCC(N)=O)C(=O)N[C@@H](CCCNC(=N)N)C(=O)N[C@@H](CC(=O)O)C(=O)N[C@@H](Cc1ccccc1)C(=O)N[C@H](C(=O)N[C@@H](CCC(N)=O)C(=O)N[C@@H](Cc1c[nH]c2ccccc12)C(=O)N[C@@H](CC(C)C)C(=O)N[C@@H](CC(C)C)C(=O)N[C@@H](CCC(=O)O)C(=O)NCC(=O)NCC(=O)N1CCC[C@H]1C(=O)N[C@@H](CO)C(=O)N[C@@H](CO)C(=O)NCC(=O)N[C@@H](C)C(=O)N1CCC[C@H]1C(=O)N1CCC[C@H]1C(=O)N1CCC[C@H]1C(=O)N[C@@H](CO)C(N)=O)C(C)C [compound 102] (H-Y[Aib]QGTFTSDYSK([AEEA-γGlu-C20 diacid])LLDYMMQRDFVQWLLEGGPSSGAPPPS-NH2; N-terminus and C-terminus assumed)
[1]
  AUCinf/dose: 672.93 ± 32.13 kg·h/L
  half-life: 9.77 ± 0.89 h
[2]
  scores of hepatocytes inflammation and NAS score, in words: statistically reduced
  body weight compared to vehicle-treated control, in words: reduce body weight
  liver enzymes and liver steatosis compared to vehicle-treated control, in words: reduce liver enzymes and liver steatosis significantly

## H[Aib]QGTFTSDYSKYLDYMMARDFVQWLIEGGPSSGAPPPSC [Peptide No. 5 (with C-terminal cysteine)]
[4]
  EC50 (nM), cAMP assay: 0.0605 nM
[5]
  EC50 (nM), cAMP assay: 13.2 nM

## Y[Aib]QGTFTSDYSK([AEEA-AEEA-γGlu-C20])YLDYMMQ[αMeR]DFVQWLLEGGPSSGAPPPS-NH2 [SEQ ID NO. 107]
[6]
  Ratio vs. GLP-1R: 100
  Relative % to native ligand: 37%
[7]
  Ratio vs. GLP-1R: 37
  Relative % to native ligand: 14%
[8]
  Ratio vs. GLP-1R: 537
  Relative % to native ligand: 200%

B1: SEQ ID NO. 110 (peptide)
peptide: Y[Aib]QGTFTSDYSK([AEEA-AEEA-γGlu-C20])YLDYMMQ[αMeR]DFVKWLLEGGPSSGAPPPS-NH2
modifications: not fully specified (residue 24); printed as YAibQGT FTSDY SK**YLD YMMQαR DFVB*W LLEGG PSSGA PPPS
[6]
  Ratio vs. GLP-1R: 100
  Relative % to native ligand: 39%
[7]
  Ratio vs. GLP-1R: 29
  Relative % to native ligand: 11%
[8]
  Ratio vs. GLP-1R: 272
  Relative % to native ligand: 105%

## Y[Aib]QGTFTSDYSK([AEEA-AEEA-γGlu-C20])LLDYMMQ[αMeR]DFVQWLLEGGPSSGAPPPS-NH2 [SEQ ID NO. 108]
[6]
  Ratio vs. GLP-1R: 100
  Relative % to native ligand: 46%
[7]
  Ratio vs. GLP-1R: 83
  Relative % to native ligand: 39%
[8]
  Ratio vs. GLP-1R: 971
  Relative % to native ligand: 451%

Source: US20250296960A1, “PEPTIDE COMPOSITIONS AND METHODS OF USE THEREOF” (priority 2022, published 2025)
